Reference: patent US9540337B2, “Gamma-glutamyl transpeptidase inhibitors and methods of use” (The Board of Regents of the University of Oklahoma, priority 2012, dated 2017)

Tests used:
[1] = tested on: T1, N[C@@H](CCC(=O)Nc1ccc([N+](=O)[O-])cc1)C(=O)O; test: Initial rate studies with D-GpNA and L-GpNA, with or without acceptor GlyGly; format: biochemical, human; conditions: pH 7.4, 37.0 °C
T1 construct: lacking the transmembrane domain; made in house; host or cells: Pichia pastoris
Method: (§1) Transpeptidation Reaction: The same assay buffer was used for both the hydrolysis reaction and the transpeptidation reaction. The transpeptidation reaction included 40 mM glycylglycine (glygly, Sigma, St. Louis, Mo.) as the acceptor. The concentration of the substrate for the transpeptidation reaction, L-GpNA (Sigma) was varied from 0.25 mM to 3 mM. The concentration of L-GpNA was 3 mM for experiments in which the concentration of glygly was varied. To initiate the transpeptidation reaction, 4 mU GGT were added.
(§2) 1. […] 2, which describes a ping pong kinetic mechanism. […] 3 and 4. […] 5 (25).
(§3) In eq. […] Data for noncompetitive inhibition were fitted to eq. 6. […] 6 [25].
(§4) Initial Rate Studies with D-GpNA and L-GpNA: In this study, the inhibition of both the GGT hydrolysis and transpeptidation reactions by OU749 and a new series of thiadiazol sulfonamide analogs was studied. The hydrolysis and transpeptidation reactions were analyzed separately by using different stereo-isomers of the γ-glutamyl-p-nitroanilide (GpNA) substrate. The kinetics of both reactions were first characterized in the absence of inhibitors. Cleavage of the γ-glutamyl bond of either D-GpNA or L-GpNA releases p-nitroanaline, which has an OD405 of 7,680 M^−1 cm^−1, allowing for the reactions to be monitored continuously with high sensitivity. The D-glutamyl isomer of GpNA was used as the substrate for the hydrolysis reaction, in which water serves as the acceptor. The L-glutamyl isomer of GpNA, with glycylglycine (GlyGly) as an acceptor, was used for the transpeptidation reaction. L-GpNA can serve as both a substrate and a low affinity acceptor, while D-GpNA is unable to serve as an acceptor (18, 21, 26). Therefore, in the absence of an added acceptor GGT exclusively catalyzes a hydrolysis reaction with D-GpNA as the substrate. When L-GpNA is used as a substrate, the GGT reaction is a mixture of both the hydrolysis and transpeptidation reactions. Under these conditions, the rate of the reaction is the sum of hydrolysis and transpeptidation reactions, with the hydrolysis reaction contributing more at low L-GpNA concentrations and transpeptidation dominating at saturating substrate concentrations. […] However, the maximum rate (Vmax) obtained with L-GpNA was approximately 3-times faster than that measured with D-GpNA, and the KGpNA for L-GpNA was 5-times higher than that measured for D-GpNA. This is at least partially due to the ability of L-GpNA to serve as an acceptor, resulting in a transpeptidation reaction, which is faster than the hydrolysis reaction. Therefore, to study the hydrolysis reaction in isolation, D-GpNA was used as the substrate without any added acceptor.

[2] = tested on: T2, N[C@H](CCC(=O)Nc1ccc([N+](=O)[O-])cc1)C(=O)O; test: as above; format: biochemical, human; conditions: pH 7.4, 37.0 °C
T2 construct: lacking the transmembrane domain; made in house; host or cells: Pichia pastoris
Method: as §1, §2, §3, §4

Human GGT1 (Homo sapiens), sequence (chain, as listed by the source): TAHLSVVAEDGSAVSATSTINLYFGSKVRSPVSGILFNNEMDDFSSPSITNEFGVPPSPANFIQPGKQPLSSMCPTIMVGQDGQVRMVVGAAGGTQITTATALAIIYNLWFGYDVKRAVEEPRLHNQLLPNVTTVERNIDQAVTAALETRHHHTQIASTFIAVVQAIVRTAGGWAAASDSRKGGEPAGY
Human GGT1 (Homo sapiens), sequence (chain, as listed by the source): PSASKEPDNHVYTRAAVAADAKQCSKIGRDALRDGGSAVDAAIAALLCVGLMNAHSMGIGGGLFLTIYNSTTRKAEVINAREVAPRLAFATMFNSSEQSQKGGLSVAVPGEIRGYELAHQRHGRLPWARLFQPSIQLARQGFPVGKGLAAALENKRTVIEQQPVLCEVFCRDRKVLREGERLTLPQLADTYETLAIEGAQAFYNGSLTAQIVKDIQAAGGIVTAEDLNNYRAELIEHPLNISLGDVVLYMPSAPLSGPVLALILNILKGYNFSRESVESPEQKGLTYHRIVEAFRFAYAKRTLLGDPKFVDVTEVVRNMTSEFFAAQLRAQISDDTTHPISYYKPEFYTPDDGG

## Human GGT1 (Homo sapiens)
[1]; other: minus acceptor
  Km: 830 ± 60 µM
[1]; other: plus acceptor GlyGly
  Km: 1200 ± 100 µM
[2]; other: minus acceptor
  Km: 160 ± 20 µM
[2]; other: plus acceptor GlyGly
  Km: 4200 ± 100 µM
